The supplement of paper PMC9112550, “Optimization of the antimicrobial peptide Bac7 by deep mutational scanning” (BMC Biology, 2022)

Tested on: Escherichia coli TOP10
Test: shrunken log2 fold change of peptide-encoding DNA abundance (4.5 h post-induction vs induction); higher = less antimicrobial activity (less host growth inhibition)
Settings: time post-induction: 4.5 h; library: site-saturation at positions 5, 18, 19, 20
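Further: peptides expressed intracellularly from a pBAD plasmid library in pooled LB shake-flask culture, induced with 0.3% L-arabinose, DNA abundance read by NGS, three biological replicates, DESeq2 with apeglm shrinkage.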

Sequence | shrunken log2 fold change
RRIRLRPPRLPRPRPRPPDIPRP | -0.0356
RRIRLRPPRLPRPRPRPPFRPRP | 0.526
RRIRLRPPRLPRPRPRPPGMPRP | 0.197
RRIRLRPPRLPRPRPRPPGWPRP | 0.218
RRIRLRPPRLPRPRPRPPHIPRP | 0.0882
RRIRLRPPRLPRPRPRPPHPPRP | 0.404
RRIRLRPPRLPRPRPRPPIVPRP | -0.531
RRIRLRPPRLPRPRPRPPIYPRP | -0.15
RRIRLRPPRLPRPRPRPPNMPRP | -0.076
RRIRLRPPRLPRPRPRPPPTPRP | 1.48
RRIRLRPPRLPRPRPRPPPWPRP | 0.892
RRIRLRPPRLPRPRPRPPQNPRP | 1.26
RRIRLRPPRLPRPRPRPPQQPRP | 0.313
RRIRLRPPRLPRPRPRPPRWPRP | 0.408
RRIRLRPPRLPRPRPRPPSEPRP | 0.321
RRIRLRPPRLPRPRPRPPTFPRP | 0.00353
RRIRLRPPRLPRPRPRPPTRPRP | 0.677
RRIRLRPPRLPRPRPRPPYFPRP | -0.247
RRIRLRPPRLPRPRPRPQAHPRP | -0.217
RRIRLRPPRLPRPRPRPQCRPRP | 0.0156
RRIRLRPPRLPRPRPRPQDHPRP | -0.203
RRIRLRPPRLPRPRPRPQDQPRP | 0.14
RRIRLRPPRLPRPRPRPQEAPRP | 0.0514
RRIRLRPPRLPRPRPRPQEEPRP | -0.0207
RRIRLRPPRLPRPRPRPQEGPRP | 0.0327

Sequence | shrunken log2 fold change
RRIRLRPPRLPRPRPRPQFQPRP | -0.0476
RRIRLRPPRLPRPRPRPQKRPRP | 0.0648
RRIRLRPPRLPRPRPRPQMWPRP | 0.0549
RRIRLRPPRLPRPRPRPQNLPRP | -0.149
RRIRLRPPRLPRPRPRPQNQPRP | -0.159
RRIRLRPPRLPRPRPRPQNWPRP | 0.1
RRIRLRPPRLPRPRPRPQPWPRP | 0.319
RRIRLRPPRLPRPRPRPQRLPRP | 0.239
RRIRLRPPRLPRPRPRPQTRPRP | 0.08
RRIRLRPPRLPRPRPRPQVSPRP | 0.0548
RRIRLRPPRLPRPRPRPQVTPRP | 0.0952
RRIRLRPPRLPRPRPRPQWCPRP | -0.282
RRIRLRPPRLPRPRPRPQYCPRP | 0.273
RRIRLRPPRLPRPRPRPRDAPRP | 0.469
RRIRLRPPRLPRPRPRPRDVPRP | 0.176
RRIRLRPPRLPRPRPRPRENPRP | 0.345
RRIRLRPPRLPRPRPRPRFEPRP | 0.529
RRIRLRPPRLPRPRPRPRGIPRP | -0.0811
RRIRLRPPRLPRPRPRPRGKPRP | 0.0746
RRIRLRPPRLPRPRPRPRISPRP | 0.0807
RRIRLRPPRLPRPRPRPRLIPRP | 0.123
RRIRLRPPRLPRPRPRPRLSPRP | 0.346
RRIRLRPPRLPRPRPRPRMMPRP | 0.189
RRIRLRPPRLPRPRPRPRMNPRP | 0.179
RRIRLRPPRLPRPRPRPRNDPRP | -0.142

Sequence | shrunken log2 fold change
RRIRLRPPRLPRPRPRPRPAPRP | 0.454
RRIRLRPPRLPRPRPRPRPKPRP | 0.294
RRIRLRPPRLPRPRPRPRPPPRP | 1.58
RRIRLRPPRLPRPRPRPRSPPRP | 0.803
RRIRLRPPRLPRPRPRPRTQPRP | 0.0772
RRIRLRPPRLPRPRPRPRVAPRP | 0.272
RRIRLRPPRLPRPRPRPRWGPRP | 0.175
RRIRLRPPRLPRPRPRPRYCPRP | -0.357
RRIRLRPPRLPRPRPRPRYHPRP | -0.274
RRIRLRPPRLPRPRPRPSAAPRP | 0.419
RRIRLRPPRLPRPRPRPSAMPRP | -0.347
RRIRLRPPRLPRPRPRPSAPPRP | 0.054
RRIRLRPPRLPRPRPRPSASPRP | 0.0218
RRIRLRPPRLPRPRPRPSCDPRP | -0.417
RRIRLRPPRLPRPRPRPSDEPRP | -0.255
RRIRLRPPRLPRPRPRPSDPPRP | -0.0539
RRIRLRPPRLPRPRPRPSFAPRP | -0.067
RRIRLRPPRLPRPRPRPSGGPRP | -0.153
RRIRLRPPRLPRPRPRPSGPPRP | -0.216
RRIRLRPPRLPRPRPRPSICPRP | -0.0314
RRIRLRPPRLPRPRPRPSIIPRP | -0.735
RRIRLRPPRLPRPRPRPSKEPRP | -0.4
RRIRLRPPRLPRPRPRPSKVPRP | -0.117
RRIRLRPPRLPRPRPRPSLQPRP | -0.348
RRIRLRPPRLPRPRPRPSMCPRP | -0.196

Sequence | shrunken log2 fold change
RRIRLRPPRLPRPRPRPSPCPRP | -0.252
RRIRLRPPRLPRPRPRPSPWPRP | -0.149
RRIRLRPPRLPRPRPRPSRWPRP | -0.279
RRIRLRPPRLPRPRPRPSSHPRP | -0.196
RRIRLRPPRLPRPRPRPSSQPRP | -0.0758
RRIRLRPPRLPRPRPRPSTDPRP | -0.356
RRIRLRPPRLPRPRPRPSTNPRP | -0.451
RRIRLRPPRLPRPRPRPSTYPRP | -0.205
RRIRLRPPRLPRPRPRPSWTPRP | -0.0555
RRIRLRPPRLPRPRPRPSYIPRP | -0.427
RRIRLRPPRLPRPRPRPTAEPRP | 0.16
RRIRLRPPRLPRPRPRPTAVPRP | 0.0335
RRIRLRPPRLPRPRPRPTCMPRP | -0.228
RRIRLRPPRLPRPRPRPTCSPRP | -0.0337
RRIRLRPPRLPRPRPRPTDKPRP | -0.251
RRIRLRPPRLPRPRPRPTDLPRP | -0.0813
RRIRLRPPRLPRPRPRPTEWPRP | -0.0906
RRIRLRPPRLPRPRPRPTFHPRP | 0.258
RRIRLRPPRLPRPRPRPTIGPRP | -0.192
RRIRLRPPRLPRPRPRPTIKPRP | -0.395
RRIRLRPPRLPRPRPRPTIMPRP | -0.334
RRIRLRPPRLPRPRPRPTIRPRP | -0.0201
RRIRLRPPRLPRPRPRPTKSPRP | 0.127
RRIRLRPPRLPRPRPRPTLAPRP | 0.423
RRIRLRPPRLPRPRPRPTLPPRP | 0.223

Sequence | shrunken log2 fold change
RRIRLRPPRLPRPRPRPTLYPRP | 2.28
RRIRLRPPRLPRPRPRPTPLPRP | 0.296
RRIRLRPPRLPRPRPRPTPQPRP | 0.594
RRIRLRPPRLPRPRPRPTQFPRP | 0.192
RRIRLRPPRLPRPRPRPTRFPRP | 0.42
RRIRLRPPRLPRPRPRPTRLPRP | 0.432
RRIRLRPPRLPRPRPRPTRSPRP | 0.467
RRIRLRPPRLPRPRPRPTSKPRP | -0.253
RRIRLRPPRLPRPRPRPTSNPRP | -0.576
RRIRLRPPRLPRPRPRPTTGPRP | 0.0715
RRIRLRPPRLPRPRPRPTVLPRP | -0.126
RRIRLRPPRLPRPRPRPTWLPRP | 0.584
RRIRLRPPRLPRPRPRPTWMPRP | -0.0614
RRIRLRPPRLPRPRPRPVAFPRP | 0.0295
RRIRLRPPRLPRPRPRPVAKPRP | 0.123
RRIRLRPPRLPRPRPRPVDEPRP | -0.0573
RRIRLRPPRLPRPRPRPVDFPRP | 0.0727
RRIRLRPPRLPRPRPRPVDSPRP | 0.0702
RRIRLRPPRLPRPRPRPVGDPRP | 0.416
RRIRLRPPRLPRPRPRPVGRPRP | 0.215
RRIRLRPPRLPRPRPRPVGVPRP | -0.0387
RRIRLRPPRLPRPRPRPVHKPRP | -0.256
RRIRLRPPRLPRPRPRPVHRPRP | 0.119
RRIRLRPPRLPRPRPRPVIDPRP | -0.182
RRIRLRPPRLPRPRPRPVIHPRP | -1.64

Sequence | shrunken log2 fold change
RRIRLRPPRLPRPRPRPVISPRP | -0.266
RRIRLRPPRLPRPRPRPVKAPRP | -0.0553
RRIRLRPPRLPRPRPRPVKGPRP | -0.00152
RRIRLRPPRLPRPRPRPVLMPRP | -0.04
RRIRLRPPRLPRPRPRPVMWPRP | 0.283
RRIRLRPPRLPRPRPRPVNQPRP | -0.138
RRIRLRPPRLPRPRPRPVPPPRP | 0.245
RRIRLRPPRLPRPRPRPVSWPRP | 0.22
RRIRLRPPRLPRPRPRPVTKPRP | 0.0485
RRIRLRPPRLPRPRPRPVVLPRP | -0.0303
RRIRLRPPRLPRPRPRPVYEPRP | 0.788
RRIRLRPPRLPRPRPRPVYNPRP | 0.41
RRIRLRPPRLPRPRPRPWATPRP | -0.0496
RRIRLRPPRLPRPRPRPWDKPRP | -0.0731
RRIRLRPPRLPRPRPRPWFTPRP | -0.509
RRIRLRPPRLPRPRPRPWGHPRP | 0.105
RRIRLRPPRLPRPRPRPWGIPRP | -0.198
RRIRLRPPRLPRPRPRPWGKPRP | -0.0201
RRIRLRPPRLPRPRPRPWHEPRP | 0.0149
RRIRLRPPRLPRPRPRPWHVPRP | -0.121
RRIRLRPPRLPRPRPRPWLPPRP | -0.464
RRIRLRPPRLPRPRPRPWLRPRP | -0.0452
RRIRLRPPRLPRPRPRPWNDPRP | 0.041
RRIRLRPPRLPRPRPRPWNNPRP | -0.225
RRIRLRPPRLPRPRPRPWNTPRP | -0.444
